Reference: publication PMC3082538, “High-Throughput Protein Expression Using a Combination of Ligation-Independent Cloning (LIC) and Infrared Fluorescent Protein (IFP) Detection” (PLoS ONE, 2011)

Experiments:
Experiment in all cases: pull-down; 5 µg purified GST or GST-GRF fusion immobilised on BSA-pretreated magnetic glutathione agarose beads (MagneGST) with 0.5% Nonidet-P40 and 10% BSA; incubated with 1 µg purified IFP fusion protein, room temperature, 60 min; five washes with 0.5% Nonidet-P40; eluate read by infrared imaging (700 nm) in microtiter plates, then SDS-PAGE and in-gel detection
Settings in all cases: both partners purified
[1] = biological target: T1, GST-GRF6 fusion protein (Arabidopsis thaliana, UniProt P48349 1-248)
T1 construct: GRF6 of Arabidopsis thaliana (AGI At5g10450), open reading frame in pDEST15; Printed size 56 kDa; Gateway attB linker between GST and GRF6; source: E. coli BL21 (DE3) pLysS, purified (GSTrap HP column, Äkta-FPLC); not shown: GST, N-terminal, kept
T1 sequence (looked up): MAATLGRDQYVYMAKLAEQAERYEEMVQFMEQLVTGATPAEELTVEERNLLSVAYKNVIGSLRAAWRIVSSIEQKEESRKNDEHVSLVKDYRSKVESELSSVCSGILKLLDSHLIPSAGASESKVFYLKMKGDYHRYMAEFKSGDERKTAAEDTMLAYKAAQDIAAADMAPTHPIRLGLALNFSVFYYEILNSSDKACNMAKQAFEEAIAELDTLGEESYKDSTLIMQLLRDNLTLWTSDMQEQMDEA

[2] = biological target: T2, GST-GRF2 fusion protein (Arabidopsis thaliana, UniProt Q01525 1-259)
T2 construct: GRF2 of Arabidopsis thaliana (AGI At1g78300), open reading frame in pDEST15; Printed size 57 kDa; Gateway attB linker between GST and GRF2; source: E. coli BL21 (DE3) pLysS, purified (GSTrap HP column, Äkta-FPLC); not shown: GST, N-terminal, kept
T2 sequence (looked up): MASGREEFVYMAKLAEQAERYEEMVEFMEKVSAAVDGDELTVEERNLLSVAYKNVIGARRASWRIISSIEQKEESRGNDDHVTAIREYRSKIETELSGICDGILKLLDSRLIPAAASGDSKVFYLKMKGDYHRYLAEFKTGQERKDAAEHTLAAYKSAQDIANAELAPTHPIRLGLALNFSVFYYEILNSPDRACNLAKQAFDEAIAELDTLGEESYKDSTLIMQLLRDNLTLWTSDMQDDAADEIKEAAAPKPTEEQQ

[3] = biological target: T3, GST-GRF3 fusion protein (Arabidopsis thaliana, UniProt P42644 1-255)
T3 construct: GRF3 of Arabidopsis thaliana (AGI At5g38480), open reading frame in pDEST15; Printed size 56 kDa; Gateway attB linker between GST and GRF3; source: E. coli BL21 (DE3) pLysS, purified (GSTrap HP column, Äkta-FPLC); not shown: GST, N-terminal, kept
T3 sequence (looked up): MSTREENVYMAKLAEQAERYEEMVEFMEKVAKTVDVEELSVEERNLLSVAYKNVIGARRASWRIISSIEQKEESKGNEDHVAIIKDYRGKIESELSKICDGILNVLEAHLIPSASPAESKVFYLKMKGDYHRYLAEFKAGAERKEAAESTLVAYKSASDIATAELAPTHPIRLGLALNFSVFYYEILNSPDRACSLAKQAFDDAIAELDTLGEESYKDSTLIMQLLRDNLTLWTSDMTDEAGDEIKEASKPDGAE

[4] = biological target: T4, GST-GRF5 fusion protein (Arabidopsis thaliana, UniProt P42645 1-268)
T4 construct: GRF5 of Arabidopsis thaliana (AGI At5g16050), open reading frame in pDEST15; Printed size 58 kDa; Gateway attB linker between GST and GRF5; source: E. coli BL21 (DE3) pLysS, purified (GSTrap HP column, Äkta-FPLC); not shown: GST, N-terminal, kept
T4 sequence (looked up): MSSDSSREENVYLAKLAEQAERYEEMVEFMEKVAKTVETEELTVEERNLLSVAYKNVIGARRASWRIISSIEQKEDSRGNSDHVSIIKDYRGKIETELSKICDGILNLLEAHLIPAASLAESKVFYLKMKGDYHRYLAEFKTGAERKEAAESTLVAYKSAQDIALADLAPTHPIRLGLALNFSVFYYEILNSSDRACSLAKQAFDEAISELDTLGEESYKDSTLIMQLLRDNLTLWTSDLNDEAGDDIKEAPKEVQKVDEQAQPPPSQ

[5] = biological target: T5, GST-GRF4 fusion protein (Arabidopsis thaliana, UniProt P46077 1-267)
T5 construct: GRF4 of Arabidopsis thaliana (AGI At1g35160), open reading frame in pDEST15; Printed size 58 kDa; Gateway attB linker between GST and GRF4; source: E. coli BL21 (DE3) pLysS, purified (GSTrap HP column, Äkta-FPLC); not shown: GST, N-terminal, kept
T5 sequence (looked up): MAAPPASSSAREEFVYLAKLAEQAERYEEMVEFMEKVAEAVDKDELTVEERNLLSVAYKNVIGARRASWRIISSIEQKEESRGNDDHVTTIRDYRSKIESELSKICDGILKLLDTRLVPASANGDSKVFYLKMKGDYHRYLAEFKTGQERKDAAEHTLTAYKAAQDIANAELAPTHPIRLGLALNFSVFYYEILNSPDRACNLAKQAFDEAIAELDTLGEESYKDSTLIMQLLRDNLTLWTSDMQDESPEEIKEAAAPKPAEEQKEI

[6] = biological target: T6, GST-GRF1 fusion protein (Arabidopsis thaliana, UniProt P42643 1-267)
T6 construct: GRF1 of Arabidopsis thaliana (AGI At4g09000), open reading frame in pDEST15; Printed size 58 kDa; Gateway attB linker between GST and GRF1; source: E. coli BL21 (DE3) pLysS, purified (GSTrap HP column, Äkta-FPLC); not shown: GST, N-terminal, kept
T6 sequence (looked up): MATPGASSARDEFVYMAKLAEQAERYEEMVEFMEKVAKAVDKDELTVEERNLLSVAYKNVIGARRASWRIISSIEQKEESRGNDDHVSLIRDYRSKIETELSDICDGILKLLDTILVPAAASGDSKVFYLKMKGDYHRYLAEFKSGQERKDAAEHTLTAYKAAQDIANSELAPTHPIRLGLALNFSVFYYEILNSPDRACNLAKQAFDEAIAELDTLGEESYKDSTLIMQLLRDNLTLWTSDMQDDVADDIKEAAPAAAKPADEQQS

Measured: binding result

B1: TPK1(1-79)-TEV-IFP-6xHis fusion protein (domain or fragment, Arabidopsis thaliana, UniProt Q8LBL1 1-79, looked up)
chain: MSSDAARTPLLPTEKIDTMAQDFNLNSRTSSSRKRRLRRSRSAPRGDCMYNDDVKIDEPPPHPSKIPMFSDLNPNLRRV
notes: potassium channel TPK1 of Arabidopsis thaliana (AGI At5g55630), N-terminal cytosolic part, amino acids 1-79; Between TPK1(1-79) and the IFP stand residues from the LIC site and the TEV cleavage site ENLYFQG (LC2 vector: ProteinX-TEV-IFP-6xHis); Printed size 47.6-48 kDa; The IFP moiety carries the chromophore biliverdin (cells grown with hemin); also called TPK1-TEV-IFP-6xHis; …
binds: [1] | [2] | [3] | [4] | [5] | [6]
